Results reported in US7592168B2, “Cephalosporin C acylase mutant and method for preparing 7-ACA using same” (Sandoz AG, priority 2003, dated 2009).

Substrate: [H][C@]12SCC(COC(C)=O)=C(C(=O)O)N1C(=O)[C@H]2NC(=O)CCC[C@@H](N)C(=O)O
Assay: CPC hydrolysis kinetics (Lineweaver-Burk plot), wild-type CPC acylase AcyII
Type: biochemical, Pseudomonas sp. SE83
Conditions: other: substrate CPC, purified enzyme, 0.1 M Tris-HCl pH 8.0, 37° C.
Experimental: The enzyme activity of CPC acylase mutant to CPC was measured according to the method described by Park et al. with minor modifications as follows (Park, et al., Kor. J. Appl. Microbiol. Biotechnol. 23: 559-564, 1995). A substrate solution was prepared by dissolving CPC (purity 74.2%; CJ Corp., Korea) in 0.1 M Tris-HCl buffer solution (pH 8.0) at a concentration of 20 mg/ml and adjusting pH to 8 with 1 N NaOH. 20 μl of the CPC solution was mixed with 20 μl of the crude enzyme solution prepared above and the reaction mixture was incubated at 37° C. for 5 min. After the reaction, the mixture (200 μl) of 50 mM NaOH and 20% glacial acetic acid (1:2) was added thereto to stop the reaction. 200 μl of the supernatant recovered from the reaction mixture by centrifugation was mixed with 40 μl of 0.5% (w/v) PDAB (p-dimethylaminobenzaldehyde; Sigma, USA) dissolved in a methanol and the reaction mixture was incubated at 37° C. for 10 min. After the reaction, the absorbance of reaction mixture was measured at 415 nm and quantified by comparing with a calibration curve of standard material. At this time, 1 unit has been defined as the amount of enzyme capable to produce 1 μmole of 7-ACA from CPC per minute. Meanwhile, the specific activity of CPC acylase mutant for CPC was determined by measuring the amount of protein remaining in the enzyme solution according to the method described by Bradford (Bradford, M., Anal. Biochem. 72: 248-254, 1976) and representing it as an active unit corresponding to 1 mg of protein. The reactivity of CPC acylase mutant to CPC was determined by the following steps of adding the same amount of protein to a reaction mixture, performing an enzyme reaction for a fixed time, measuring the amount of 7-ACA produced in the reaction mixture, and representing it as a relative value. The end-product inhibition by 7-ACA was determined by adding a protein corresponding to the same active unit to a reaction mixture, performing an enzyme reaction for a fixed time; measuring the amount of 7-ACA produced in the reaction mixture, and representing it as a relative value. […]

B1: Pseudomonas sp. SE83 CPC acylase AcyII, wild type, SEQ ID NO: 2 (alpha-subunit SEQ ID NO: 4, beta-subunit SEQ ID NO: 5) (Pseudomonas sp. SE83) (protein)
chain 1: TMAAKTDREALQAALPPLSGSLSIPGLSAPVRVQRDGWGIPHIKASGEADAYRALGFVHAQDRLFQMELTRRKALGRAAEWLGAEAAEADILVRRLGMEKVCRRDFEALGAEAKDMLRAYVAGVNAFLASGAPLPIEYGLLGAEPEPWEPWHSIAVMRRLGLLMGSVWFKLWRMLALPVVGAANALKLRYDDGGQDLLCIPPGVEAERLEADLAALRPAVDALLKAMGG
chain 2: SNNWAVAPGRTATGRPILAGDPHRVFEIPGMYAQHHLACDRFDMIGLTVPGVPGFPHFAHNGKVAYCVTHAFMDIHDLYLEQFAEDGRTARFGNEFEPVAWRRDRIAVRGGADREFDIVETRHGPVIAGDPLEGAALTLRSVQFAETDLSFDCLTRMPGASTVAQLYDATRGWGLIDHNLVAGDVAGSIGHLVRARVPSRPRENGWLPVPGWSGEHEWRGWIPHEAMPRVIDPPGGLIVTANNRVVADDHPDYLCTDCHPPYRAERIMERLVASPAFAVDDAAAIHADTLSPHVGLLRARLEALGIQGSLPAEELRQTLIAWDGRMDAGSQAASAYNAFRRALTRLVTARSGLEQAIAHPFAAVPPGVSPQGQVWWAVPTLLRNDDAGMLKGWSWDEALSEALSVATQNLTGRGWGEEHRPRFTHPLSAQFPAWAALLNPVSRPIGGDGDTVLANGLVPSAGPEATYGALSRYVFDVGNWDNSRWVVFHGASGHPASPHYADQNAPWSDCAMVPMLYSWDRIAAEAVTSQELVPA
notes: made in house; host or cells: E. coli MC1061
- Km: 50 mM
- kcat: 0.9 s⁻¹
- kcat/Km: 20 M⁻¹ s⁻¹
